From US20250250357A1 (NANJING ZAIMING PHARMACEUTICAL, published 2025)

Assays:
[1] = biological target: T1, human MSLN-R2-his protein (human, UniProt Q13421 391-486); test: ELISA on coated antigen, antibody 0.01 nM
T1 construct: Self-made in HEK293E cells; also called human MSLN-R2 protein; hMSLN-R2-his; not shown: His tag

[2] = biological target: T2, human MSLN-R3-his protein (human, UniProt Q13421 487-598); test: ELISA on coated antigen, antibody 0.01 nM
T2 construct: Self-made in HEK293E cells; also called human MSLN-R3 protein; hMSLN-R3-his; not shown: His tag
T2 sequence (Q13421 495-606): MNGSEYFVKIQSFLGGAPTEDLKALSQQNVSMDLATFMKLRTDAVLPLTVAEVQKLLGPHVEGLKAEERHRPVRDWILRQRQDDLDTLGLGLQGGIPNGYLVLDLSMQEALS

[3] = biological target: T1, human MSLN-R2-his protein; test: ELISA on coated antigen, antibody 1 nM
Procedure: (§1) The plate was sealed with a plastic film and incubated at 4° C. overnight. The next day, the plate was washed twice with PBST, and a blocking buffer [PBS+2% (w/w) BSA] was added for blocking at room temperature for 2 h. The blocking buffer was discarded, and a chimeric antibody or negative control antibody serially diluted from 100 nM was added at 50 μL/well. After incubation at 37° C. for 2 h, the plate was washed 3 times with PBST. […] After incubation at 37° C. for 2 h, the plate was washed 5 times with PBST. A TMB substrate was added at 50 μL/well for incubation at room temperature for 5-10 min, and then a stop solution (1.0 N HCl) was added at 50 μL/well.

[4] = biological target: T1, human MSLN-R2-his protein; test: ELISA on coated antigen, no antibody (column none)
Procedure: as §1

[5] = biological target: T2, human MSLN-R3-his protein; test: ELISA on coated antigen, antibody 0.1 nM
Procedure: as §1

[6] = biological target: T3, human MSLN-R3-3 polypeptide (human); test: ELISA on coated antigen, antibody 0.1 nM
T3 construct: also called human MSLN-R3-3 protein; hMSLN-R3-3
Procedure: as §1

[7] = biological target: T1, human MSLN-R2-his protein; test: ELISA on coated antigen, antibody 0.001 nM
Procedure: as §1

[8] = biological target: T2, human MSLN-R3-his protein; test: ELISA on coated antigen, antibody 1 nM
Procedure: as §1

[9] = biological target: T3, human MSLN-R3-3 polypeptide; test: ELISA on coated antigen, no antibody (column none)
Procedure: as §1

[10] = biological target: T2, human MSLN-R3-his protein; test: ELISA on coated antigen, antibody 10 nM
Procedure: as §1

[11] = biological target: T1, human MSLN-R2-his protein; test: ELISA on coated antigen, antibody 0.0001 nM
Procedure: as §1

[12] = biological target: T3, human MSLN-R3-3 polypeptide; test: ELISA on coated antigen, antibody 0.01 nM
Procedure: as §1

[13] = biological target: T1, human MSLN-R2-his protein; test: ELISA on coated antigen, antibody 100 nM
Procedure: as §1

[14] = biological target: T1, human MSLN-R2-his protein; test: ELISA on coated antigen, antibody 10 nM
Procedure: as §1

[15] = biological target: T1, human MSLN-R2-his protein; test: ELISA on coated antigen, antibody 0.1 nM
Procedure: as §1

[16] = biological target: T3, human MSLN-R3-3 polypeptide; test: ELISA on coated antigen, antibody 100 nM
Procedure: as §1

[17] = biological target: T2, human MSLN-R3-his protein; test: ELISA on coated antigen, antibody 0.001 nM
Procedure: as §1

[18] = biological target: T3, human MSLN-R3-3 polypeptide; test: ELISA on coated antigen, antibody 10 nM
Procedure: as §1

[19] = biological target: T3, human MSLN-R3-3 polypeptide; test: ELISA on coated antigen, antibody 1 nM
Procedure: as §1

[20] = biological target: T2, human MSLN-R3-his protein; test: ELISA on coated antigen, antibody 100 nM
Procedure: as §1

[21] = biological target: T3, human MSLN-R3-3 polypeptide; test: ELISA on coated antigen, antibody 0.001 nM
Procedure: as §1

[22] = biological target: T3, human MSLN-R3-3 polypeptide; test: ELISA on coated antigen, antibody 0.0001 nM
Procedure: as §1

[23] = biological target: T2, human MSLN-R3-his protein; test: ELISA on coated antigen, no antibody (column none)
Procedure: as §1

[24] = biological target: T2, human MSLN-R3-his protein; test: ELISA on coated antigen, antibody 0.0001 nM
Procedure: as §1

T1 sequence (Q13421 other isoform, or with tags, fused parts or gaps): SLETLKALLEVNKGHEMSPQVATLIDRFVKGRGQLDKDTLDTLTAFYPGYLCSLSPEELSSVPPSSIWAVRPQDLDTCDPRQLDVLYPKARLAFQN

Binder | OD450 [1] | OD450 [2] | OD450 [3] | OD450 [4] | OD450 [5] | OD450 [6] | OD450 [7] | OD450 [8] | OD450 [9] | OD450 [10] | OD450 [11] | OD450 [12] | OD450 [13] | OD450 [14] | OD450 [15] | OD450 [16] | OD450 [17] | OD450 [18] | OD450 [19] | OD450 [20] | further results
S009-F2.21.4 (antibody, human IgG1, kappa, V domains shown, Human-murine chimeric antibody: murine VH/VL on human IgG1 heavy and kappa light constant regions) VH: EVQLQQSGPELVKPGASVKIPCKASGYTFTDYNMDWVKQSHGKSLEWIGDINPNNGGSIYNQRFKGKATLTVDKSSSTAYMELRSLTSEDSAVYYCARRAYYSTGYFDVWGTGTTVTVSS VL: QIVLTQSPALMSASPGEKVTITCSASSSISYMHWFQQKPGTSPKLWIYSTSTLASGVPARFSGSGSGTSYSLTISRMEAEDTATYYCQQRSSYPPTFGGGTKLEIKR | 0.05 OD450 | 0.05 OD450 | 0.05 OD450 | 0.06 OD450 | 0.05 OD450 | 0.05 OD450 | 0.05 OD450 | 0.05 OD450 | 0.05 OD450 | 0.05 OD450 | 0.05 OD450 | 0.05 OD450 | 0.06 OD450 | 0.05 OD450 | 0.05 OD450 | 0.05 OD450 | 0.05 OD450 | 0.05 OD450 | 0.05 OD450 | 0.06 OD450 | OD450 [21]: 0.05 OD450; OD450 [22]: 0.05 OD450; OD450 [23]: 0.06 OD450; OD450 [24]: 0.05 OD450
S009-F2.17.3 (antibody, human IgG1, kappa, V domains shown, Human-murine chimeric antibody: murine VH/VL on human IgG1 heavy and kappa light constant regions) VH: QVQLQQPGTELVTPGASVKLSCKASGYSFTSYWMHWVKQRPGQGLEWIGNINPSNGDTFYNEKFKNKATLTVDKSSSTAYMQLSSLTSEDSAVYYCARGWLRDYWGQGTTLTVSS VL: not shown | 0.05 OD450 | 0.05 OD450 | 0.05 OD450 | 0.06 OD450 | 0.07 OD450 | 0.05 OD450 | 0.05 OD450 | 0.29 OD450 | 0.05 OD450 | 1.19 OD450 | 0.05 OD450 | 0.05 OD450 | 0.06 OD450 | 0.05 OD450 | 0.05 OD450 | 0.05 OD450 | 0.05 OD450 | 0.05 OD450 | 0.05 OD450 | 2.3 OD450 | OD450 [21]: 0.05 OD450; OD450 [22]: 0.05 OD450; OD450 [23]: 0.06 OD450; OD450 [24]: 0.05 OD450
S009-F2.38.12 (antibody, human IgG1, kappa, V domains shown, Human-murine chimeric antibody: murine VH/VL on human IgG1 heavy and kappa light constant regions) VH: QVQLQQPGTELVKPGASVKLSCKASGYTFTSYWMHWVKQRPGQGLEWIGNINPSNGGTNYNEKIKNKATLTVDKSSSTAYMQLSSLTSEDSAVYYCARWNYYGNYPFDYWGQGTTLTVSS VL: DIVMTQSQKFMSTTVGDRVSITCKASQNVGTAVAWYQQKPGQSPKLLIYSASNRYTGVPDRFTGSGSGTDFTLTISNMQSEDLADYFCQQYSSYPLTFGAGTKLELKR | 0.05 OD450 | 0.04 OD450 | 0.05 OD450 | 0.06 OD450 | 0.05 OD450 | 0.05 OD450 | 0.05 OD450 | 0.05 OD450 | 0.05 OD450 | 0.05 OD450 | 0.05 OD450 | 0.05 OD450 | 0.06 OD450 | 0.05 OD450 | 0.05 OD450 | 0.06 OD450 | 0.05 OD450 | 0.05 OD450 | 0.05 OD450 | 0.06 OD450 | OD450 [21]: 0.05 OD450; OD450 [22]: 0.05 OD450; OD450 [23]: 0.05 OD450; OD450 [24]: 0.05 OD450
S009-F2.39.3 (antibody, human IgG1, kappa, V domains shown, Human-murine chimeric antibody: murine VH/VL on human IgG1 heavy and kappa light constant regions) VH: QVQLQQPGTELVKPGASVKLSCKASGYTFTNYWMHWVKQRPGQGLEWIGNINPSSGDSYYNERFMSKAKMTVDKSSSTAYMQLSSLTSEDSAVYYCARSGGLWLAFWGPGTLVTVSA VL: DIVMTQSPSSLAMSVGQKVTMSCKSSQTLLNSVSQNNYLAWYQQKPGQSPTLLVYFASTRESGVPDRFIGGGSGTDFTLTISSVQAEDLADYFCQQHYRTPYTFGGGTNLEIKR | 0.05 OD450 | 0.05 OD450 | 0.05 OD450 | 0.06 OD450 | 0.07 OD450 | 0.05 OD450 | 0.05 OD450 | 0.25 OD450 | 0.05 OD450 | 0.98 OD450 | 0.05 OD450 | 0.05 OD450 | 0.06 OD450 | 0.05 OD450 | 0.05 OD450 | 0.05 OD450 | 0.05 OD450 | 0.05 OD450 | 0.05 OD450 | 1.84 OD450 | OD450 [21]: 0.05 OD450; OD450 [22]: 0.05 OD450; OD450 [23]: 0.05 OD450; OD450 [24]: 0.05 OD450
S009-F2.16.10 (antibody, human IgG1, kappa, V domains shown, Human-murine chimeric antibody: murine VH/VL on human IgG1 heavy and kappa light constant regions) VH: QVQLQQPGAELIKPGASVKLSCKASGYTFTSYWMHWVKQRPGQGLEWIGIIHPNIGSTNYNERFKSKATLTVDKSSSTAYMQLSSLTSEDSAVYYCARRSSNYGDWYFDVWGTGTTVTVSS VL: DIVMTQSHRFMSTSVGDRVSITCKASQDVGTSVAWYQQKPGQSPKLLIYWASTQHTGVPDRFTGSGSGTDFTLTINNVQSEDLLDYFCQQYSSYPLTFGAGTKLELKR | 0.05 OD450 | 0.05 OD450 | 0.05 OD450 | 0.06 OD450 | 0.05 OD450 | 0.05 OD450 | 0.05 OD450 | 0.05 OD450 | 0.05 OD450 | 0.05 OD450 | 0.05 OD450 | 0.05 OD450 | 0.05 OD450 | 0.05 OD450 | 0.05 OD450 | 0.05 OD450 | 0.05 OD450 | 0.05 OD450 | 0.05 OD450 | 0.06 OD450 | OD450 [21]: 0.05 OD450; OD450 [22]: 0.05 OD450; OD450 [23]: 0.06 OD450; OD450 [24]: 0.05 OD450
S009-F2.23.12 (antibody, human IgG1, kappa, V domains shown, Human-murine chimeric antibody: murine VH/VL on human IgG1 heavy and kappa light constant regions) VH: QVQLQQPGTELVKPGASVKLSCKASGYTFTNYWMHWVKQRPGQGLEWIGNINPSNGGPYYNERFRSKATLTVDKSSSTAYMQLSSLTSEDSAVYYCARPYYGSSYGYFDYWGQGTTLTVSS VL: DIQMTQSPSSLSASLGGKVTITCKASQDINKYIAWYQHKPGKGPRLLIHYTSELQPGIPSRFSGNGSGRDYSFSISNLEPEDIATYYCLQYANPLRTFGGGTKLEIKR | 0.05 OD450 | 0.05 OD450 | 0.05 OD450 | 0.06 OD450 | 0.09 OD450 | 0.05 OD450 | 0.05 OD450 | 0.3 OD450 | 0.05 OD450 | 1.4 OD450 | 0.05 OD450 | 0.05 OD450 | 0.06 OD450 | 0.05 OD450 | 0.05 OD450 | 0.06 OD450 | 0.05 OD450 | 0.05 OD450 | 0.05 OD450 | 2.08 OD450 | OD450 [21]: 0.05 OD450; OD450 [22]: 0.05 OD450; OD450 [23]: 0.06 OD450; OD450 [24]: 0.05 OD450
S009-F2.13.3 (antibody, human IgG1, kappa, V domains shown, Human-murine chimeric antibody: murine VH/VL on human IgG1 heavy and kappa light constant regions) VH: QVQLQQSGAELMKPGASVKLSCKATGYTFTGYWIEWVKQRPGHGLEWIGEILPGSGSTNYNEKFKGKATFTADTSSNTAYMQLSSLTTEDSAIYYCARAGAWFAYWGQGTLVTVSA VL: QIVLTQSPAIMSASLGERVTMTCTASSSVSSSYLHWYQQKPGSSPKLWTYSTSNLASGVPARFSGSGSGTSYSLTISSMEAEDAATYYCHQYHRSPWTFGGGTKLEIKR | 0.05 OD450 | 0.05 OD450 | 0.05 OD450 | 0.06 OD450 | 0.05 OD450 | 0.05 OD450 | 0.05 OD450 | 0.05 OD450 | 0.05 OD450 | 0.06 OD450 | 0.06 OD450 | 0.05 OD450 | 0.07 OD450 | 0.06 OD450 | 0.05 OD450 | 0.06 OD450 | 0.06 OD450 | 0.07 OD450 | 0.05 OD450 | 0.06 OD450 | OD450 [21]: 0.05 OD450; OD450 [22]: 0.05 OD450; OD450 [23]: 0.06 OD450; OD450 [24]: 0.05 OD450
